The target of assay [1] is T1, c-Met receptor on mouse liver plasma membranes (mouse, UniProt P16056 25-1379).
T1 construct: whole, on cells; Membrane preparation from mouse liver
Nature of the assay: competition with 50 pM ^125I-HGF for binding to mouse liver plasma membranes; mean ±SEM, n=3. The procedure:
Mouse liver plasma membranes were incubated with […] ¹²⁵I-HGF and the indicated concentrations of HGF or Norleual. Results are presented as percent of specific ¹²⁵I-HGF binding and error bars indicate±standard error of mean (SEM). Competition experiments included quadruplicate data points and each experiment was repeated in triplicate.
(§1) ¹²⁵I-HGF binding assay. Mouse liver was homogenized in hypotonic buffer fortified with 0.1% bovine serum albumin as described by Hanesworth et al. (1993). 600 μg of membrane protein was incubated with 50 pM ¹²⁵I-HGF with various concentrations of HGF or Norleual in a total volume of 100 μl phosphate-buffered saline (PBS) fortified with 0.1% BSA. Binding occurred for one hour on ice. Membranes were pelleted by centrifugation and washed twice with incubation buffer. Radioactivity was counted with a gamma counter (Isomedic 10/880, ICN, Cost Mesa, Calif., USA). Specific binding was calculated and normalized to control counts. Competition fits by Prism software (GraphicPad, San Diego, Calif.) were performed according to the manufacturer's instructions.
Materials and methods were as described in Example 1. In separate tests of unlabeled competitors, both Norleual and HGF competed with ¹²⁵I-HGF for high affinity binding to mouse liver plasma membranes (FIGS. 2A, 2B). […]

Assay [2] addresses T1, c-Met receptor on mouse liver plasma …. Nature of the assay: competition with ^125I-HGF at various concentrations of COMPOUND 2 (mouse liver membranes). The procedure:
as §1
Briefly, COMPOUND 2 was iodinated with […] and bound and cross-linked to HEK cell membranes with or without 1 nM COMPOUND 2 or 1 nM hepatocyte growth factor. Following solubilization and separation of free label by molecular sieving, total radioactive counts were determined. The ability of the ligand COMPOUND 2 to compete with hepatocyte growth factor binding to the c-Met receptor was also tested using mouse liver plasma membranes and intact HEK293 cells. […] Membranes were pelleted and unbound label was removed by washing, and total radioactive counts were determined. […]

The target of assay [3] is T2, c-Met receptor on human cells (HEK293 cells and membranes, HUVEC) (human, UniProt P08581 25-1390).
T2 construct: Endogenous receptor of human embryonic kidney HEK293 cells, HEK293 membranes and HUVEC; also called hepatocyte growth factor receptor; HGF-R
Nature of the assay: unlabeled Norleual against ^125I-Norleual on HEK293 membranes; two-site competition fit, low-affinity site. The procedure: (§2) FIG. 3C: ¹²⁵I-Norleual was bound to HEK membranes in the presence or absence of 1.5 nM HGF (n=8) or 1 μM Norleual (n=6). Total binding is reported as percent control (n=10), (*p<0.001). Error bars indicate±SD. […] Error bars indicate SD and data points were performed in duplicate.
(§3) ¹²⁵I-Norleual binding assay. HEK293 cells were grown to confluency in DMEM fortified with 10% FBS. Media was aspirated and cells were washed twice with ice-cold PBS. Cells were lysed with hypotonic buffer and homogenized as described by Zhang et al. (1999, J. Pharmacol. Exp. Ther. 289: 1075-1083; 2003 J. Cell Biochem. 88: 408-417). 450 μg of membrane protein was incubated with 1.5 nM ¹²⁵I-Norleual with or without Norleual or HGF in a total volume of 250 μl PBS, 0.1% BSA. Tubes were spun and binding was carried out for 60 minutes at RT. Bound and free ligands were separated by vacuum filtration using (Brandel Cell Harvester, Schleicher & Schull, Keene, N.H., USA) 32 glass filters. Radioactivity retained by the filters was measured using a gamma counter. […] Data analysis was preformed using Prism software (GraphicPad) per the supplier's recommendations.

In assay [4] the target is T2, c-Met receptor on human cells (HEK293 …). The experiment in a line: unlabeled Norleual against ^125I-Norleual on HEK293 membranes; two-site competition fit, high-affinity site. The protocol:
as §2, §3

This is an account of results in US20080293634A1 (WASHINGTON STATE UNIVERSITY RESEARCH FOUNDATION, published 2008).

Non-standard residues stand in square brackets, D forms with d. No end group written: not given here. Nle = CCCC[C@H](N)C(=O)O

T2 sequence (P08581 other isoform, or with tags, fused parts or gaps limits assumed): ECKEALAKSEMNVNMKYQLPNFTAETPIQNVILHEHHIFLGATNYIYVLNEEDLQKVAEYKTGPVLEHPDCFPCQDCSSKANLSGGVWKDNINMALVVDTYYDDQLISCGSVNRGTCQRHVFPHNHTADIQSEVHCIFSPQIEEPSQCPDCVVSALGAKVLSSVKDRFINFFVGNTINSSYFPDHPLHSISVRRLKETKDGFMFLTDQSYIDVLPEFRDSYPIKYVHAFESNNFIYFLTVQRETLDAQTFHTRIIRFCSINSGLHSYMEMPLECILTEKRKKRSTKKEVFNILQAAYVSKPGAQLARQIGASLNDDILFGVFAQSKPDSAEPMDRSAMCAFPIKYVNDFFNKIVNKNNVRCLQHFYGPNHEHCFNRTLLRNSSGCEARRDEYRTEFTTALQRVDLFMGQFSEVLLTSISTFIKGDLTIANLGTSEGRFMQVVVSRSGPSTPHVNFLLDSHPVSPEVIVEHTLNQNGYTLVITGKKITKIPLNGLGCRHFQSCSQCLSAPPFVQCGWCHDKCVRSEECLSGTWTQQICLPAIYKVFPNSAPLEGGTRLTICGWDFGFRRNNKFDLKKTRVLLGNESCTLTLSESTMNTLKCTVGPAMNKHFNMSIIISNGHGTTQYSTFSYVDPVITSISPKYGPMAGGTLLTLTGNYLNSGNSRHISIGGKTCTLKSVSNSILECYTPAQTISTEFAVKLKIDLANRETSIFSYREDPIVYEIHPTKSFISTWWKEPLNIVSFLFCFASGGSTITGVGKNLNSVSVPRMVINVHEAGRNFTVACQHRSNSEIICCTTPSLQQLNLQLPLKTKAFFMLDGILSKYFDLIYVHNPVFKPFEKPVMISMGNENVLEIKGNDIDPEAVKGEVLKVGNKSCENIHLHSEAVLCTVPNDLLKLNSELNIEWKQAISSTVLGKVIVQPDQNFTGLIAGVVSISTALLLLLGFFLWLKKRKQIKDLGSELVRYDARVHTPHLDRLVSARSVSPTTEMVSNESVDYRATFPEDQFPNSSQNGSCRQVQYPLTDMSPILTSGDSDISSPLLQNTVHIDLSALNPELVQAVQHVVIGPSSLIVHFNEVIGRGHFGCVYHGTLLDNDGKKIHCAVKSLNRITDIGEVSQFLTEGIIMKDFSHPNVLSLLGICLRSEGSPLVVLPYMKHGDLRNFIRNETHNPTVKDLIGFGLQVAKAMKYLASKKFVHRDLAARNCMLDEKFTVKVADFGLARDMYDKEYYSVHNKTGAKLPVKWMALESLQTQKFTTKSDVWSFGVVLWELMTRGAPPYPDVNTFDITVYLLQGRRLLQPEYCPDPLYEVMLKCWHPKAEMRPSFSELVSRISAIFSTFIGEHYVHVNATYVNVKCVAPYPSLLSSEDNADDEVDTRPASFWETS
T1 sequence (P16056 25-1379): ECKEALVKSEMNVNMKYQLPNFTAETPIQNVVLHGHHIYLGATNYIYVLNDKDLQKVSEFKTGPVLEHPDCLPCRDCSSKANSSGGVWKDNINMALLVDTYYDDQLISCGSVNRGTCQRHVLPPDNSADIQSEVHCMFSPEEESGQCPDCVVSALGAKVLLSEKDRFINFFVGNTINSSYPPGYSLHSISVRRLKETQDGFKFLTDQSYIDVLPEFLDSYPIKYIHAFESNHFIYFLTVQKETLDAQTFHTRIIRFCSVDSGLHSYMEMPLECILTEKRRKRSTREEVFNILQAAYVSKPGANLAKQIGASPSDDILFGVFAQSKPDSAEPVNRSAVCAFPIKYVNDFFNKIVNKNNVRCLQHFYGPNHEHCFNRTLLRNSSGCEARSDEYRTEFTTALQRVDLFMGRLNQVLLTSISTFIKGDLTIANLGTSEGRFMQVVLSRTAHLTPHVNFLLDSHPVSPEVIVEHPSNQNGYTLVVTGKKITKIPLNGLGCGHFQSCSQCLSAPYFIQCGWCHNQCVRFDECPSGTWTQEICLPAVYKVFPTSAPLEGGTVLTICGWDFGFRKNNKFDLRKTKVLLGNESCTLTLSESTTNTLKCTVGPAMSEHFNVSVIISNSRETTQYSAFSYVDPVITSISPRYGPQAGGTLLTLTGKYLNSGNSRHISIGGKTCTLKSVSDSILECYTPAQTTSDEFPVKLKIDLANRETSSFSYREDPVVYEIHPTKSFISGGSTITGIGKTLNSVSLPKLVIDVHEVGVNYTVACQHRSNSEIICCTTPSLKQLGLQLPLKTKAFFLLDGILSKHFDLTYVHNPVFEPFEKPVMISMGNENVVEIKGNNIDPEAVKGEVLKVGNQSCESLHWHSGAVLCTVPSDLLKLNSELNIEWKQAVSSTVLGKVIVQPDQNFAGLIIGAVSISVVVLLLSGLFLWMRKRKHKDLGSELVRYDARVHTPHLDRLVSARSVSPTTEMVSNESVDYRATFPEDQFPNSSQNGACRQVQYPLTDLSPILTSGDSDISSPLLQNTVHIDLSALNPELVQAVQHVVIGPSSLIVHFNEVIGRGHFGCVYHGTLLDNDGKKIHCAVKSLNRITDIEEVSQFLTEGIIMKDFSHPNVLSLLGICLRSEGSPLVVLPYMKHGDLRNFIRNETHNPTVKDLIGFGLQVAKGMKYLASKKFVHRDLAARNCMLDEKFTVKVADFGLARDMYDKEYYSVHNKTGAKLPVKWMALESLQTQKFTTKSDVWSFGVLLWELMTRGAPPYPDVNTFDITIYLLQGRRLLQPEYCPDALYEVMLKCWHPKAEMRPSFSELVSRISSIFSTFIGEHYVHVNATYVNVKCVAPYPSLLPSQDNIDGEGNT

B1: Norleual (Nle-Tyr-Leu-ψ-(CH2-NH2)-His-Pro-Phe) (peptide)
peptide: [Nle]YLHPF
modifications: not fully specified; printed as Nle-Tyr-Leu-ψ-(CH2-NH2)-His-Pro-Phe; also: reduced peptide bond ψ(CH2-NH) between Leu3 and His4
notes: Synthesized by Syngene and purified by reverse phase HPLC; Peptidomimetic hexapeptide; also called Compound 2; COMPOUND 2
In general, IC50 refers to the concentration at which inhibition is half-maximal. Read a high IC50 as weaker potency in that assay. As a reminder, the Kd is the equilibrium constant for the complex coming apart. A higher Kd goes with lower affinity. On to B1, for which the IC50 in assay [1] came to 0.0031 nM; in assay [3], 7.4 nM; in assay [4] it was 0.048 nM. Also, the Kd in assay [2] was ~0.003 nM.
